PMC12808597, “Spatially diffuse cAMP signalling with oppositely biased GLP-1 receptor agonists in β-cells despite differences in receptor localisation” (Molecular Metabolism, 2025)

Experiments:
[1] = biological target: mouse glucagon-like peptide-1 receptor, untagged (mouse) (UniProt O35659); experiment: imaging of fluorescent ligand bound to cells; washout: TMR-agonist detected at 60 min in AD293 cells transiently expressing untagged GLP-1R, with or without 20 uM exendin(9-39) applied 10 min after agonist
mouse glucagon-like peptide-1 receptor, untagged (mouse), sequence (O35659 22-463): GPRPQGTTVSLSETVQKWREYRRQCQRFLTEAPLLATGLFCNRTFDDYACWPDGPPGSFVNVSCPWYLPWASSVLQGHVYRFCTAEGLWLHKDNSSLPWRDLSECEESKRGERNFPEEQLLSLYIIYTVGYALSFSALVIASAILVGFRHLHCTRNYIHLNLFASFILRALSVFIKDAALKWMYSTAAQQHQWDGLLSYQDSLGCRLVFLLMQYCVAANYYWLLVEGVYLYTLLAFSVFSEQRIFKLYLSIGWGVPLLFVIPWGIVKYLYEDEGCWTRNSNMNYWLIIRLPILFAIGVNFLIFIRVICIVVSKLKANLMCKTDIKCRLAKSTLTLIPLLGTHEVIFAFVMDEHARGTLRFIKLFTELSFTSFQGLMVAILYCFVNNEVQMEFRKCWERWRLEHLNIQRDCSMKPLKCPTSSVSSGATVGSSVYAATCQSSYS

[2] = biological target: GLP-1R endogenous in wild-type mouse pancreatic islets (mouse (endogenous in C57Bl/6J islets)) (UniProt O35659); experiment: imaging of fluorescent ligand in intact islets; wild-type mouse islets, 1 nM TMR-agonist, continuous 60 min or 10 min then exendin(9-39) washout
GLP-1R endogenous in wild-type mouse pancreatic islets (mouse (endogenous in C57Bl/6J islets)), sequence (O35659 22-463): as above

[3] = biological target: human glucagon-like peptide-1 receptor, untagged (human) (UniProt P43220); experiment: imaging of fluorescent ligand bound to cells; Cy5- or TMR-agonist over a concentration range, 30 min stimulation; AD293 cells expressing untagged hGLP-1R or mGLP-1R, or wild-type INS-1 832/3 cells (non-specific binding from INS-1 832/3 Glp1r-/- cells subtracted); 'functional affinities'
human glucagon-like peptide-1 receptor, untagged (human), sequence (P43220 24-463): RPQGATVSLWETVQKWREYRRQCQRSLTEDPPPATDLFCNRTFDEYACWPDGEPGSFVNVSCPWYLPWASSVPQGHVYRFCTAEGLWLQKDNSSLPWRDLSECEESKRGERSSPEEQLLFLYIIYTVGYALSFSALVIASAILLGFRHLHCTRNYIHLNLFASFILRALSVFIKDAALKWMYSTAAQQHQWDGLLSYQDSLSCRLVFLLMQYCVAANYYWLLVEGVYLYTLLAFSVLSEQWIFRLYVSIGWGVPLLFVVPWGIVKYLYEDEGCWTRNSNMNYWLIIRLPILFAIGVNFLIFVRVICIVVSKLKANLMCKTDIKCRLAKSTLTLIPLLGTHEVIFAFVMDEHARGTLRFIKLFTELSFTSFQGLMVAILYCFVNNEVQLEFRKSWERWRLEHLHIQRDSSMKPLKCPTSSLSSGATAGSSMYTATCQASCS

[4] = biological target: mouse glucagon-like peptide-1 receptor, untagged (mouse) (UniProt O35659); experiment: as above

Row | Substance | percent reduction of total ExD3-TMR binding by washout with 20 uM exendin(9-39) [1] | total ligand bound after washout relative to continuously applied ExF1 [2] | fold lower affinity than the Cy5 equivalent [3] | fold lower affinity than the Cy5 equivalent [4]
1 | exendin(9–39) (peptide) | 50% |  |  | 
2 | exendin-asp3 tetramethylrhodamine conjugate (peptide) |  | 2 fold | 5 fold | 3 fold
3 | exendin-phe1 tetramethylrhodamine conjugate (peptide) |  |  | 5 fold | 3 fold
